Like-named read-outs stand apart in the source and are kept apart here. [ ]: non-standard residue; d: D form. Nle = CCCC[C@H](N)C(=O)O
Columns and labels:
[1] = molecular target: T1, recombinant human melanocortin-1 receptor (hMCR-1a) in membrane homogenates of HEK-293 cells (human, UniProt Q01726 1-317); experiment: competitive inhibition of [I125]-NDP-alpha-MSH, hMCR-1 HEK-293 membranes
T1 construct: whole, on cells; Used as membrane homogenates, not intact cells; also called hMCR-la; MC-1
Method: (§1) A competitive inhibition binding assay was performed using membrane homogenates prepared from HEK-293 cells that express recombinant hMCR-la or hMCR-4 (in each instance where the h prefix refers to human), or alternatively membrane homogenates from B16-F10 mouse melanoma cells containing endogenous murine MCR-1. In the examples that follow, all MCR-1 and MCR-4 values are for human recombinant receptors, unless otherwise noted. Assays were performed in 96 well polypropylene round-bottom plates (VWR catalog number 12777-030).
(§2) Membrane homogenates were incubated with 0.1 nM [I¹²⁵]-NDP-α-MSH (Perkin Elmer) and increasing concentrations of test peptides of the present invention in buffer containing 25 mM HEPES buffer (pH 7.5) with 100 mM NaCl, 2 mM CaCl₂, 2 mM MgCl₂, 0.3 mM 1,10-phenanthroline, and 0.2% bovine serum albumin. After incubation for 90 minutes at 37° C., the assay mixture was filtered onto GF/B Unifilter plates (Perkin-Elmer catalog number 6005177) and washed with 3 mL of ice-cold buffer per well. Filters were air dried and 35 μL of scintillation cocktail added to each well. Plates were counted in a Microbeta counter for bound radioactivity. […] Maximal specific binding (100%) was defined as the difference in radioactivity (cpm) bound to cell membranes in the absence and presence of 1 μM NDP-α-MSH. Each assay was conducted in duplicate and the actual mean values are described, with results less than 0% reported as 0%. Ki values for peptides of the present invention were determined using Graph-Pad PRISM® curve-fitting software.

[2] = molecular target: T2, human melanocortin-1 receptor (hMCR-1) expressed by the human melanoma cell line HBL (human, UniProt Q01726 1-317); experiment: cell-based or functional assay
T2 sequence (Q01726 whole entry): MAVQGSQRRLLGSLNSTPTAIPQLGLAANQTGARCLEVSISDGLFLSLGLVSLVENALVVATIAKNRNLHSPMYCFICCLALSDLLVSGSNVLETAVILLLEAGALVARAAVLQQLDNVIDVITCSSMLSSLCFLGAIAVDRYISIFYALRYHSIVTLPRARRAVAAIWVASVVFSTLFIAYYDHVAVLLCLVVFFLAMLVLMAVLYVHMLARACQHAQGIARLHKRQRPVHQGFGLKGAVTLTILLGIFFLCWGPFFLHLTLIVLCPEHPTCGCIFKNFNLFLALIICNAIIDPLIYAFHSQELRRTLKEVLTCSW

[3] = molecular target: T3, recombinant human melanocortin-4 receptor (hMCR-4) in membrane homogenates of HEK-293 cells (human, UniProt P32245 1-332); experiment: competitive inhibition of [I125]-NDP-alpha-MSH, hMCR-4 HEK-293 membranes
T3 construct: whole, on cells; Used as membrane homogenates, not intact cells; also called MC-4
T3 sequence (P32245 whole entry): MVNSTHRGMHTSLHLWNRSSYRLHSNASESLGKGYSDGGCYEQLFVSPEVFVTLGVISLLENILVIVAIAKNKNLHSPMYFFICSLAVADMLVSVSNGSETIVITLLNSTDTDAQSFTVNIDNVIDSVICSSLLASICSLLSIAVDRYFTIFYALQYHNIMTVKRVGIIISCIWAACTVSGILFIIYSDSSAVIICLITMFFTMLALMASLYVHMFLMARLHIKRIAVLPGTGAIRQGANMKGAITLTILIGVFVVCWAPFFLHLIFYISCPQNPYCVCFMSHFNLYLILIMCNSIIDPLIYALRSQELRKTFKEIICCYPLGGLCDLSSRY
Method: as §1, §2

[4] = molecular target: T2, human melanocortin-1 receptor (hMCR-1) …; experiment: cell-based or functional assay; remark: listed apart in the source
[5] = molecular target: T2, human melanocortin-1 receptor (hMCR-1) …; experiment: cell-based or functional assay; remark: listed apart in the source
[6] = molecular target: T2, human melanocortin-1 receptor (hMCR-1) …; experiment: cell-based or functional assay; remark: listed apart in the source
[7] = molecular target: T2, human melanocortin-1 receptor (hMCR-1) …; experiment: cell-based or functional assay; remark: listed apart in the source
[8] = molecular target: T2, human melanocortin-1 receptor (hMCR-1) …; experiment: cell-based or functional assay; remark: listed apart in the source
[9] = molecular target: T2, human melanocortin-1 receptor (hMCR-1) …; experiment: cell-based or functional assay; remark: listed apart in the source
[10] = molecular target: T2, human melanocortin-1 receptor (hMCR-1) …; experiment: cell-based or functional assay; remark: listed apart in the source
[11] = molecular target: T2, human melanocortin-1 receptor (hMCR-1) …; experiment: cell-based or functional assay; remark: listed apart in the source
[12] = molecular target: T2, human melanocortin-1 receptor (hMCR-1) …; experiment: cell-based or functional assay; remark: listed apart in the source
[13] = molecular target: T2, human melanocortin-1 receptor (hMCR-1) …; experiment: cell-based or functional assay; remark: listed apart in the source
[14] = molecular target: T2, human melanocortin-1 receptor (hMCR-1) …; experiment: cell-based or functional assay; remark: listed apart in the source
[15] = molecular target: T2, human melanocortin-1 receptor (hMCR-1) …; experiment: cell-based or functional assay; remark: listed apart in the source
[16] = molecular target: T2, human melanocortin-1 receptor (hMCR-1) …; experiment: cell-based or functional assay; remark: listed apart in the source

T1 sequence (Q01726 whole entry): as the sequence (Q01726 whole entry) above

Row | Binder | Ki [1] | Ki [3] | also measured
1 | Ac-[Nle]AH[dF]RAW-NH2 (SMILES CCCC[C@H](NC(C)=O)C(=O)N[C@@H](C)C(=O)N[C@@H](Cc1c[nH]cn1)C(=O)N[C@H](Cc1ccccc1)C(=O)N[C@@H](CCCNC(=N)N)C(=O)N[C@@H](C)C(=O)N[C@@H](Cc1c[nH]c2ccccc12)C(N)=O, synthetic linear peptide) [Ac-Nle-Ala-His-D-Phe-Arg-Ala-Trp-NH2] | 0.2 nM | 1740 nM | MC-1 EC50 (average; cAMP HBL) [2]: 0.02 nM
2 | Ac-[Nle]AA[dF]RAW-NH2 (SMILES CCCC[C@H](NC(C)=O)C(=O)N[C@@H](C)C(=O)N[C@@H](C)C(=O)N[C@H](Cc1ccccc1)C(=O)N[C@@H](CCCNC(=N)N)C(=O)N[C@@H](C)C(=O)N[C@@H](Cc1c[nH]c2ccccc12)C(N)=O, synthetic linear peptide) [Ac-Nle-Ala-Ala-D-Phe-Arg-Ala-Trp-NH2] | 195 nM | 10000 nM | MC-1 EC50 (average; cAMP HBL) [4]: 8 nM
3 | Ac-[Nle]AR[dF]RAW-NH2 (SMILES CCCC[C@H](NC(C)=O)C(=O)N[C@@H](C)C(=O)N[C@@H](CCCNC(=N)N)C(=O)N[C@H](Cc1ccccc1)C(=O)N[C@@H](CCCNC(=N)N)C(=O)N[C@@H](C)C(=O)N[C@@H](Cc1c[nH]c2ccccc12)C(N)=O, synthetic linear peptide) [Ac-Nle-Ala-Arg-D-Phe-Arg-Ala-Trp-NH2] | 0.45 nM | 1180 nM | MC-1 EC50 (average; cAMP HBL) [5]: 0.04 nM
4 | Ac-[Nle]AH[dF]AAW-NH2 (SMILES CCCC[C@H](NC(C)=O)C(=O)N[C@@H](C)C(=O)N[C@@H](Cc1c[nH]cn1)C(=O)N[C@H](Cc1ccccc1)C(=O)N[C@@H](C)C(=O)N[C@@H](C)C(=O)N[C@@H](Cc1c[nH]c2ccccc12)C(N)=O, synthetic linear peptide) [Ac-Nle-Ala-His-D-Phe-Ala-Ala-Trp-NH2] | 43 nM | 10000 nM | MC-1 EC50 (average; cAMP HBL) [6]: 4 nM
5 | Ac-[Nle]AH[dF]RPW-NH2 (SMILES CCCC[C@H](NC(C)=O)C(=O)N[C@@H](C)C(=O)N[C@@H](Cc1c[nH]cn1)C(=O)N[C@H](Cc1ccccc1)C(=O)N[C@@H](CCCNC(=N)N)C(=O)N1CCC[C@H]1C(=O)N[C@@H](Cc1c[nH]c2ccccc12)C(N)=O, synthetic linear peptide) [Ac-Nle-Ala-His-D-Phe-Arg-Pro-Trp-NH2] | 185 nM | 20 nM | MC-1 EC50 (average; cAMP HBL) [7]: 9 nM
6 | Ac-[Nle]AF[dF]RAW-NH2 (SMILES CCCC[C@H](NC(C)=O)C(=O)N[C@@H](C)C(=O)N[C@@H](Cc1ccccc1)C(=O)N[C@H](Cc1ccccc1)C(=O)N[C@@H](CCCNC(=N)N)C(=O)N[C@@H](C)C(=O)N[C@@H](Cc1c[nH]c2ccccc12)C(N)=O, synthetic linear peptide) [Ac-Nle-Ala-Phe-D-Phe-Arg-Ala-Trp-NH2] | 20 nM | 1620 nM | MC-1 EC50 (average; cAMP HBL) [8]: 6 nM
7 | Ac-[Nle]AHFRAW-NH2 (SMILES CCCC[C@H](NC(C)=O)C(=O)N[C@@H](C)C(=O)N[C@@H](Cc1c[nH]cn1)C(=O)N[C@@H](Cc1ccccc1)C(=O)N[C@@H](CCCNC(=N)N)C(=O)N[C@@H](C)C(=O)N[C@@H](Cc1c[nH]c2ccccc12)C(N)=O, synthetic linear peptide) [Ac-Nle-Ala-His-Phe-Arg-Ala-Trp-NH2] | 85 nM | 10000 nM | MC-1 EC50 (average; cAMP HBL) [9]: 4 nM
8 | Ac-[Nle]AHFRGW-NH2 (SMILES CCCC[C@H](NC(C)=O)C(=O)N[C@@H](C)C(=O)N[C@@H](Cc1c[nH]cn1)C(=O)N[C@@H](Cc1ccccc1)C(=O)N[C@@H](CCCNC(=N)N)C(=O)NCC(=O)N[C@@H](Cc1c[nH]c2ccccc12)C(N)=O, synthetic linear peptide) [Ac-Nle-Ala-His-Phe-Arg-Gly-Trp-NH2] | 340 nM | 10000 nM | MC-1 EC50 (average; cAMP HBL) [10]: 21 nM
9 | Ac-[Nle]AH[dF]RA[dW]-NH2 (SMILES CCCC[C@H](NC(C)=O)C(=O)N[C@@H](C)C(=O)N[C@@H](Cc1c[nH]cn1)C(=O)N[C@H](Cc1ccccc1)C(=O)N[C@@H](CCCNC(=N)N)C(=O)N[C@@H](C)C(=O)N[C@H](Cc1c[nH]c2ccccc12)C(N)=O) [Ac-Nle-Ala-His-D-Phe-Arg-Ala-D-Trp-NH2] |  |  | MC-1 EC50 (average; cAMP HBL) [11]: 0.6 nM
10 | Ac-[Nle]AH[dF]R[dP]W-NH2 (SMILES CCCC[C@H](NC(C)=O)C(=O)N[C@@H](C)C(=O)N[C@@H](Cc1c[nH]cn1)C(=O)N[C@H](Cc1ccccc1)C(=O)N[C@@H](CCCNC(=N)N)C(=O)N1CCC[C@@H]1C(=O)N[C@@H](Cc1c[nH]c2ccccc12)C(N)=O) [Ac-Nle-Ala-His-D-Phe-Arg-D-Pro-Trp-NH2] |  |  | MC-1 EC50 (average; cAMP HBL) [12]: 1 nM
11 | Ac-[Nle]AH[dF]R[dP][dW]-NH2 (SMILES CCCC[C@H](NC(C)=O)C(=O)N[C@@H](C)C(=O)N[C@@H](Cc1c[nH]cn1)C(=O)N[C@H](Cc1ccccc1)C(=O)N[C@@H](CCCNC(=N)N)C(=O)N1CCC[C@@H]1C(=O)N[C@H](Cc1c[nH]c2ccccc12)C(N)=O) [Ac-Nle-Ala-His-D-Phe-Arg-D-Pro-D-Trp-NH2] |  |  | MC-1 EC50 (average; cAMP HBL) [13]: 2 nM
12 | Ac-[Nle]AH[dF]RP[dW]-NH2 (SMILES CCCC[C@H](NC(C)=O)C(=O)N[C@@H](C)C(=O)N[C@@H](Cc1c[nH]cn1)C(=O)N[C@H](Cc1ccccc1)C(=O)N[C@@H](CCCNC(=N)N)C(=O)N1CCC[C@H]1C(=O)N[C@H](Cc1c[nH]c2ccccc12)C(N)=O) [Ac-Nle-Ala-His-D-Phe-Arg-Pro-D-Trp-NH2] |  |  | MC-1 EC50 (average; cAMP HBL) [14]: 0.17 nM
13 | Ac-[Nle]AH[dF]RAW-OH (SMILES CCCC[C@H](NC(C)=O)C(=O)N[C@@H](C)C(=O)N[C@@H](Cc1c[nH]cn1)C(=O)N[C@H](Cc1ccccc1)C(=O)N[C@@H](CCCNC(=N)N)C(=O)N[C@@H](C)C(=O)N[C@@H](Cc1c[nH]c2ccccc12)C(=O)O, synthetic linear peptide) [Ac-Nle-Ala-His-D-Phe-Arg-Ala-Trp-OH] | 6 nM | 7420 nM | MC-1 EC50 (average; cAMP HBL) [15]: 0.4 nM
14 | Ac-[Nle][dF]RAW-NH2 (SMILES CCCC[C@H](NC(C)=O)C(=O)N[C@H](Cc1ccccc1)C(=O)N[C@@H](CCCNC(=N)N)C(=O)N[C@@H](C)C(=O)N[C@@H](Cc1c[nH]c2ccccc12)C(N)=O) [Ac-Nle-D-Phe-Arg-Ala-Trp-NH2] |  |  | MC-1 EC50 (average; cAMP HBL) [16]: 402 nM
15 | Ac-[Nle]A[dF]RAW-NH2 (SMILES CCCC[C@H](NC(C)=O)C(=O)N[C@@H](C)C(=O)N[C@H](Cc1ccccc1)C(=O)N[C@@H](CCCNC(=N)N)C(=O)N[C@@H](C)C(=O)N[C@@H](Cc1c[nH]c2ccccc12)C(N)=O, synthetic linear peptide) [Ac-Nle-Ala-D-Phe-Arg-Ala-Trp-NH2] | 6680 nM | 10000 nM | 
16 | Ac-[Nle]HFRAW-NH2 (SMILES CCCC[C@H](NC(C)=O)C(=O)N[C@@H](Cc1c[nH]cn1)C(=O)N[C@@H](Cc1ccccc1)C(=O)N[C@@H](CCCNC(=N)N)C(=O)N[C@@H](C)C(=O)N[C@@H](Cc1c[nH]c2ccccc12)C(N)=O, synthetic linear peptide) [Ac-Nle-His-Phe-Arg-Ala-Trp-NH2] | 5920 nM | 10000 nM | 

— US20150119341A1 (PALATIN TECHNOLOGIES, published 2015)
